Patent US20190010493A1 (published 2019)

T1: full-length mAKAPβ protein with an internal deletion of residues 1257 to 1886 (rat) (UniProt Q9WVC7)
T1 sequence: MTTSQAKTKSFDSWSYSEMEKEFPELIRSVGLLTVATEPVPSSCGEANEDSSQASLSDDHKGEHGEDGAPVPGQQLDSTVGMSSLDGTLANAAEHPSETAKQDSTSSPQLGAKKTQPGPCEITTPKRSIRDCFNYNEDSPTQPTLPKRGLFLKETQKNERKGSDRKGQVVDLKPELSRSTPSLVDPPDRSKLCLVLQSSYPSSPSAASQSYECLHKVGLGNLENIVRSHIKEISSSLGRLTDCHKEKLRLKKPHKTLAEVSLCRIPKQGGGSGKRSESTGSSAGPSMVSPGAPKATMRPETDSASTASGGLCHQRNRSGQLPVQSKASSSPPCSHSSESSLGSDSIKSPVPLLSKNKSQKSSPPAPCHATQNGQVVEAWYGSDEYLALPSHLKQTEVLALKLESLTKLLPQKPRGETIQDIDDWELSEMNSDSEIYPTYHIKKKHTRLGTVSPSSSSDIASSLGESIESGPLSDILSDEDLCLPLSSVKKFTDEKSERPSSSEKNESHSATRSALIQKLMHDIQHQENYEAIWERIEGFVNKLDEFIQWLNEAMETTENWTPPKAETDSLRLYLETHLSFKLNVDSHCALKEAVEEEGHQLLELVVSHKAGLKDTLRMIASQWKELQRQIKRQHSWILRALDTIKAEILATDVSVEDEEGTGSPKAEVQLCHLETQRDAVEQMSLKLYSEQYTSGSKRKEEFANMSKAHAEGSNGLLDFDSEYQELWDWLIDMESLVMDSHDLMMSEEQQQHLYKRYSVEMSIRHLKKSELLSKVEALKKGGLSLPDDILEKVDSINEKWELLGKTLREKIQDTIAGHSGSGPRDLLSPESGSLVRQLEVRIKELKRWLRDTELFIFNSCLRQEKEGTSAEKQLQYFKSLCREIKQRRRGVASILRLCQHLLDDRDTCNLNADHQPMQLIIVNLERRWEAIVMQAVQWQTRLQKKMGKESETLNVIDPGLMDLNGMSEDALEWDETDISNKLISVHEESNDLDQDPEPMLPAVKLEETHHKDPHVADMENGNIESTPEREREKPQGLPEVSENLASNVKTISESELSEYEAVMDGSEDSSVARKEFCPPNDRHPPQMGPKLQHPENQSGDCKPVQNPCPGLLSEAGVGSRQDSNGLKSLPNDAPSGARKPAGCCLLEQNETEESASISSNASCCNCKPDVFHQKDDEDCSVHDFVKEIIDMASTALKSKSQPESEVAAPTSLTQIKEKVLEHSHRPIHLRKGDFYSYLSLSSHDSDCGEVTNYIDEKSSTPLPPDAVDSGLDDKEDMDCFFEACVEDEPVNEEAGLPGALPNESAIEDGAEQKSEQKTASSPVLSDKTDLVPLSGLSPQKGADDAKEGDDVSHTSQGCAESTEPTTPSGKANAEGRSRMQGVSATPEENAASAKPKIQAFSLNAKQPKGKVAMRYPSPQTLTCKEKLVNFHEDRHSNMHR

T2: bacterially expressed His-tagged mAKAP 1286 to 1833 (rat, UniProt Q9WVC7 1286-1833)
T2 construct: Covalently immobilised by amine coupling on a CM5 chip, 200 resonance units; not shown: His tag (pET30-based vector)
T2 sequence: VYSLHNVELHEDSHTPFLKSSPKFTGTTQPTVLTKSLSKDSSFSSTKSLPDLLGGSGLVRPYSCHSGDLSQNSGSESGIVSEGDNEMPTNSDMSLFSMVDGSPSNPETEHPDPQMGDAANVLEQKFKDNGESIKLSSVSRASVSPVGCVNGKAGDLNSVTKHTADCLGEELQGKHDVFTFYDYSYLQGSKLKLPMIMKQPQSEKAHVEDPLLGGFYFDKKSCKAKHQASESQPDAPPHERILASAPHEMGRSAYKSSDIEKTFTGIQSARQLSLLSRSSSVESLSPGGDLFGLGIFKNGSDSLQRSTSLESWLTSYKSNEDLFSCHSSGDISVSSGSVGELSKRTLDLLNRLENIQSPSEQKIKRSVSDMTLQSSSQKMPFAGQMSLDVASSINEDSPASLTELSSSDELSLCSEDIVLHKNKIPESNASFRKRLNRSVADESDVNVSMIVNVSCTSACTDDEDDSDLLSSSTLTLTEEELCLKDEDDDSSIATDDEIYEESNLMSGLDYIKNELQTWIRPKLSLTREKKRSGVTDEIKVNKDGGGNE


Legend:
[1] = molecular target: T1, full-length mAKAPβ protein with an internal deletion of residues 1257 to 1886 (rat); test: co-immunoprecipitation, heterologous cells
[2] = molecular target: T2, bacterially expressed His-tagged mAKAP …; test: SPR (BIAcore T100), His-mAKAP 1286-1833 immobilised, phospho-His-RSK3 analyte
Protocol: The inventors next tested whether mAKAP-RSK3 binding is direct (FIG. 7G of U.S. Pat. No. 9,132,174). […] The binding was direct and of high affinity (nanomolar KD). The inventors previously reported that once activated, RSK3 binds mAKAPα less well in cells (Michele 2005).
Surface Plasmon Resonance: SPR analysis was performed using a BIAcore T100. […] (Biacore amine coupling kit) to the surface of a sensor chip (BIAcore type CM5). His-RSK3 analytes (6.25-200 nmol/L) in HBS buffer (10 mmol/L Hepes, pH 7.4, 150 mmol/L NaCl, and 0.005% Surfactant P20) were injected at a flow rate of 30 μL/min for 5 minutes, followed by buffer alone for another 5 minutes. Sensorgrams were processed by BIAcore T100 evaluation software.

[3] = molecular target: T3, N-terminally truncated RSK3 mutant (HA-RSK3 DN30) (human, UniProt Q15349 31-733); test: co-immunoprecipitation in heterologous cells
T3 construct: The range 31-733 is inferred from the label 'DN30'; not shown: hemagglutinin (HA) tag
From the text: To address this hypothesis, the inventors defined the mAKAP domains responsible for RSK3 binding. HA-tagged RSK3 was co-expressed in heterologous cells with myc-tagged mAKAPβ fragments and coimmunoprecipitated using a myc-tag antibody (FIGS. 7A and 7B of U.S. Pat. No. 9,132,174). […] As shown, the unique N-terminal domain of RSK3 bound full-length mAKAPβ (FIG. 4D of U.S. Pat. No. 9,132,174). The mAKAP RBD also bound HA-RSK3 1 to 42 (FIG. 7E of U.S. Pat. No. 9,132,174), but not to the N-terminally truncated RSK3 mutant (HA-RSK3 DN30) or the HA-tagged full-length RSK2 (FIG. 7F of U.S. Pat. No. 9,132,174).
Immunoprecipitations: HEK293 and COS-7 cells were transfected with Lipofectamine 2000 (Invitrogen) or Polyethylenimine “Max” (Polysciences). Cells (including myocytes) were lysed in buffer (20 mmol/L HEPES, pH 7.4, 150 mmol/L NaCl, 5 mmol/L EDTA, 0.5% Triton, 50 mmol/L NaF, 1 mmol/L sodium orthovanadate, 1 mmol/L DTT, and protease inhibitors). After centrifugation at 10,000×g for 10 minutes at 4° C., the clarified extracts were used for immunoprecipitation using appropriate antibodies (10 μg purified antibody or 1-5 μL whole serum) and 20 μL protein G sepharose (Millipore, Fastflow) for 3 hours to overnight at 4° C. The beads were washed 3-5 times with lysis buffer, and the immunoprecipitated proteins were eluted with 1× Laemmli buffer for western blotting. […]

| Molecule | fold decrease of binding affinity against unphosphorylated RSK3 [2] | further results |
| --- | --- | --- |
| HA-tagged RSK3 (type 3 p90 ribosomal S6 kinase) (from UniProt Q15349 1-733) (enzyme) | – | reduction of binding against full-length mAKAPβ [1]: > 85% |
| His-RSK3 phosphorylated by ERK (enzyme, phosphorylated in vitro with ERK2; sites on this protein not stated here (S360 is named as the ERK site of HA-RSK3 in paragraph 123), also called Phospho-His-RSK3 (ERK2); not shown: His tag) MDLSMKKFAVRRFFSVYLRRKSRSKSSSLSRLEEEGVVKEIDISHHVKEGFEKADPSQFELLKVLGQGSYGKVFLVRKVKGSDAGQLYAMKVLKKATLKVRDRVRSKMERDILAEVNHPFIVKLHYAFQTEGKLYLILDFLRGGDLFTRLSKEVMFTEEDVKFYLAELALALDHLHSLGIIYRDLKPENILLDEEGHIKITDFGLSKEAIDHDKRAYSFCGTIEYMAPEVVNRRGHTQSADWWSFGVLMFEMLTGSLPFQGKDRKETMALILKAKLGMPQFLSGEAQSLLRALFKRNPCNRLGAGIDGVEEIKRHPFFVTIDWNTLYRKEIKPPFKPAVGRPEDTFHFDPEFTARTPTDSPGVPPSANAHHLFRGFSFVASSLIQEPSQQDLHKVPVHPIVQQLHGNNIHFTDGYEIKEDIGVGSYSVCKRCVHKATDTEYAVKIIDKSKRDPSEEIEILLRYGQHPNIITLKDVYDDGKFVYLVMELMRGGELLDRILRQRYFSEREASDVLCTITKTMDYLHSQGVVHRDLKPSNILYRDESGSPESIRVCDFGFAKQLRAGNGLLMTPCYTANFVAPEVLKRQGYDAACDIWSLGILLYTMLAGFTPFANGPDDTPEEILARIGSGKYALSGGNWDSISDAAKDVVSKMLHVDPHQRLTAMQVLKHPWVVNREYLSPNQLSRQDVHLVKGAMAATYFALNRTPQAPRLEPVLSSNLAQRRGMKRLTSTRL | 5 fold | – |
| His-RSK3 phosphorylated by both ERK and PDK1 (enzyme, phosphorylated in vitro with ERK2 and PDK1; sites on this protein not stated here (S360 ERK site and S218 PDK1 site are named for HA-RSK3 in paragraph 123), also called Phospho-His-RSK3 (ERK2 and PDK1); not shown: His tag) MDLSMKKFAVRRFFSVYLRRKSRSKSSSLSRLEEEGVVKEIDISHHVKEGFEKADPSQFELLKVLGQGSYGKVFLVRKVKGSDAGQLYAMKVLKKATLKVRDRVRSKMERDILAEVNHPFIVKLHYAFQTEGKLYLILDFLRGGDLFTRLSKEVMFTEEDVKFYLAELALALDHLHSLGIIYRDLKPENILLDEEGHIKITDFGLSKEAIDHDKRAYSFCGTIEYMAPEVVNRRGHTQSADWWSFGVLMFEMLTGSLPFQGKDRKETMALILKAKLGMPQFLSGEAQSLLRALFKRNPCNRLGAGIDGVEEIKRHPFFVTIDWNTLYRKEIKPPFKPAVGRPEDTFHFDPEFTARTPTDSPGVPPSANAHHLFRGFSFVASSLIQEPSQQDLHKVPVHPIVQQLHGNNIHFTDGYEIKEDIGVGSYSVCKRCVHKATDTEYAVKIIDKSKRDPSEEIEILLRYGQHPNIITLKDVYDDGKFVYLVMELMRGGELLDRILRQRYFSEREASDVLCTITKTMDYLHSQGVVHRDLKPSNILYRDESGSPESIRVCDFGFAKQLRAGNGLLMTPCYTANFVAPEVLKRQGYDAACDIWSLGILLYTMLAGFTPFANGPDDTPEEILARIGSGKYALSGGNWDSISDAAKDVVSKMLHVDPHQRLTAMQVLKHPWVVNREYLSPNQLSRQDVHLVKGAMAATYFALNRTPQAPRLEPVLSSNLAQRRGMKRLTSTRL | 8 fold | – |
| mAKAP RSK binding domain (RBD), mAKAP residues 1694 to 1833 (other, not shown: small tags and cut ends, also called mAKAP RBD) ELSLCSEDIVLHKNKIPESNASFRKRLNRSVADESDVNVSMIVNVSCTSACTDDEDDSDLLSSSTLTLTEEELCLKDEDDDSSIATDDEIYEESNLMSGLDYIKNELQTWIRPKLSLTREKKRSGVTDEIKVNKDGGGNE | – | binding result [3]: no binding |
